Columns and labels:
[1] = target: HLA-A*02:01; assay: IEDB peptide-MHC binding, cellular MHC/competitive/fluorescence; ≥ and ≤ were set here for values at or beyond the usual limits of such assays
[2] = target: HLA-A*02:06; assay: as above
[3] = target: HLA-A*02:02; assay: IEDB peptide-MHC binding, purified MHC/competitive/radioactivity; ≥ and ≤ were set here for values at or beyond the usual limits of such assays
[4] = target: HLA-A*02:03; assay: as above
[5] = target: HLA-A*68:02; assay: as above
[6] = target: HLA-A*02:01; assay: as above
[7] = target: HLA-A*68:02; assay: IEDB peptide-MHC binding, cellular MHC/competitive/fluorescence; ≥ and ≤ were set here for values at or beyond the usual limits of such assays
[8] = source organism: Vaccinia virus WR
[9] = source organism: Hepacivirus hominis
[10] = source organism: Influenza A virus
[11] = source organism: Mammarenavirus lassaense
[12] = source organism: Mammarenavirus whitewaterense
[13] = source organism: Mammarenavirus choriomeningitidis
[14] = source organism: Mammarenavirus brazilense

Row | Sequence | IC50 [1, 8] | IC50 [2, 8] | IC50 [3, 8] | IC50 [4, 8] | IC50 [5, 8] | also measured
1 | IAVANCVRNL | 13.6 µM | 9.11 µM | 0.057 µM | 0.467 µM | 0.465 µM | –
2 | VLIVMLLFA | – | – | – | – | – | IC50 [2, 9]: 8.42 µM; IC50 [6, 9]: 2.36 µM; IC50 [3, 9]: 1.62 µM; IC50 [4, 9]: 0.435 µM; IC50 [5, 9]: 4.55 µM
3 | DLNAVTTNNL | – | 7.52 µM | 1.83 µM | 1.63 µM | 3.37 µM | IC50 [6, 8]: 1.61 µM
4 | AVATTHSWI | – | – | – | – | – | IC50 [1, 10]: 32.9 µM; IC50 [2, 10]: 28 µM; IC50 [3, 10]: 0.44 µM; IC50 [4, 10]: 0.753 µM; IC50 [5, 10]: 0.876 µM
5 | LIAGIILLI | – | 8.22 µM | 0.00017 µM | 0.039 µM | 0.02 µM | IC50 [6, 8]: 0.109 µM
6 | RVNDLNRMPT | 7.2 µM | 7.72 µM | 1.36 µM | 1.44 µM | 0.631 µM | –
7 | DVDIPTFNSL | 18.2 µM | 9.71 µM | 1.81 µM | 1.03 µM | 3.05 µM | –
8 | FLVIAINAM | – | ≥ 70 µM | – | – | – | IC50 [7, 8]: 23.3 µM
9 | DTIAHINTL | 10.1 µM | 11.1 µM | 0.747 µM | 0.233 µM | 1.24 µM | –
10 | DLNRMPTDML | 17.3 µM | 47.4 µM | 1.25 µM | 2.19 µM | 3.94 µM | –
11 | DTGKKELAL | – | 14.2 µM | 0.116 µM | 0.156 µM | 3.41 µM | IC50 [6, 8]: 3.39 µM
12 | GLILFVLAL | – | 7.81 µM | 0.129 µM | 0.452 µM | 4.34 µM | IC50 [6, 8]: 0.175 µM
13 | LINLVQYRI | 5.9 µM | 5.34 µM | 0.311 µM | 0.583 µM | 1.73 µM | –
14 | NTNQGNILM | – | 5.94 µM | 1.7 µM | 1.15 µM | 0.664 µM | IC50 [6, 8]: 4.58 µM
15 | EVTPEYIKDL | 6.5 µM | 7.68 µM | 1.52 µM | 2.27 µM | 1.23 µM | –
16 | TLFYCDERDA | – | 19.5 µM | 0.271 µM | 2.15 µM | 4.92 µM | IC50 [6, 8]: 0.238 µM
17 | LNQAVNNLV | – | – | – | – | – | IC50 [1, 11]: 7.96 µM; IC50 [2, 11]: 13.6 µM; IC50 [3, 11]: 0.511 µM; IC50 [4, 11]: 3.35 µM; IC50 [5, 11]: 4.88 µM
18 | ELKDLLNVT | 51.6 µM | 38.5 µM | 1.54 µM | 0.209 µM | 2.79 µM | –
19 | LLGLILFVL | – | 8.13 µM | 0.266 µM | 1.85 µM | 0.906 µM | IC50 [6, 8]: 0.724 µM
20 | ITHTNITTLL | 11.9 µM | 14.8 µM | 1.69 µM | 0.101 µM | 0.311 µM | –
21 | DIMTSTRTI | – | 21.8 µM | 3.45 µM | 0.079 µM | 0.078 µM | IC50 [6, 8]: 3.46 µM
22 | YVEHDPRLV | – | 22.6 µM | 1.18 µM | 0.711 µM | 1.93 µM | IC50 [6, 8]: 4.74 µM
23 | IQKDINITHT | 37.4 µM | 61.7 µM | 1.36 µM | 0.34 µM | 4.99 µM | –

Row | Sequence | IC50 [1, 8] | IC50 [2, 8] | IC50 [3, 8] | IC50 [4, 8] | IC50 [5, 8] | also measured
24 | LDFAKVASV | – | – | – | – | – | IC50 [2, 12]: 10.6 µM; IC50 [6, 12]: 4.74 µM; IC50 [3, 12]: 0.061 µM; IC50 [4, 12]: 0.453 µM; IC50 [5, 12]: 0.296 µM
25 | LNQTVYSLV | – | – | – | – | – | IC50 [1, 13]: 9.25 µM; IC50 [2, 13]: 5.1 µM; IC50 [3, 13]: 3.33 µM; IC50 [4, 13]: 1.51 µM; IC50 [5, 13]: 0.262 µM
26 | MTSTRTIIL | 6.47 µM | 6.79 µM | 1.34 µM | 0.84 µM | 0.507 µM | –
27 | MAEFEDQLV | – | 5.51 µM | 0.165 µM | 0.641 µM | 0.674 µM | IC50 [6, 8]: 2.15 µM
28 | LLNETAKVI | – | 15.4 µM | 0.319 µM | 0.071 µM | 0.881 µM | IC50 [6, 8]: 0.406 µM
29 | FIQWTGGNI | – | 5.91 µM | 0.683 µM | 0.055 µM | 0.442 µM | IC50 [6, 8]: 0.525 µM
30 | GTSGVESAV | – | – | – | – | – | IC50 [1, 10]: 10.8 µM; IC50 [2, 10]: 11.4 µM; IC50 [3, 10]: 1.1 µM; IC50 [4, 10]: 3.01 µM; IC50 [5, 10]: 0.683 µM
31 | AAAKTPVIV | 34.7 µM | 67.3 µM | 1.9 µM | 1.42 µM | 2.02 µM | –
32 | HMYRGGNGNT | 19.3 µM | 9.87 µM | 2.02 µM | 0.423 µM | 3.25 µM | –
33 | FLRPVLKAM | 11.9 µM | 5.48 µM | 1.38 µM | 0.0098 µM | 2.47 µM | –
34 | VTSPLTGNNT | 39.5 µM | 5.13 µM | 1.45 µM | 2.5 µM | 0.51 µM | –
35 | TIAVSVYGAI | – | 5.39 µM | 1.55 µM | 0.582 µM | 0.618 µM | IC50 [6, 8]: 2.56 µM
36 | EMKYALINL | 41.2 µM | ≥ 70 µM | 3.06 µM | 0.063 µM | 2.47 µM | –
37 | CLKNEGVSGL | 6.3 µM | 14.1 µM | 0.127 µM | 0.025 µM | 2.08 µM | –
38 | ELLEMKYAL | – | 6.02 µM | 0.952 µM | 0.863 µM | 1.52 µM | IC50 [6, 8]: 0.281 µM
39 | RVKQWVMDT | 20.3 µM | 13.5 µM | 3.63 µM | 0.0036 µM | 0.603 µM | –
40 | ELSRLRYNL | – | 18.6 µM | 0.00093 µM | 0.254 µM | 0.001 µM | IC50 [6, 8]: 0.726 µM
41 | RVKQWVMDTL | 21.4 µM | 27.8 µM | 3.48 µM | 0.689 µM | 0.155 µM | –
42 | EIMDKEQLL | – | 26.4 µM | 0.183 µM | 0.427 µM | 0.291 µM | IC50 [6, 8]: 3.96 µM
43 | NASKTINAL | 26.8 µM | 6.11 µM | 0.117 µM | 0.708 µM | 0.052 µM | –
44 | MLKLFTHDIM | – | 20.3 µM | 0.085 µM | 0.093 µM | 2 µM | IC50 [6, 8]: 1.38 µM
45 | LAEHISDSI | 6.05 µM | 19.3 µM | 0.045 µM | 0.731 µM | 0.428 µM | –
46 | ELWARISSSL | – | 9.3 µM | 0.175 µM | 0.324 µM | 0.022 µM | IC50 [6, 8]: 1.32 µM

Row | Sequence | IC50 [1, 8] | IC50 [2, 8] | IC50 [3, 8] | IC50 [4, 8] | IC50 [5, 8] | also measured
47 | LRYFIMAYV | – | – | – | – | – | IC50 [1, 14]: 12.7 µM; IC50 [2, 14]: 20.1 µM; IC50 [3, 14]: 0.213 µM; IC50 [4, 14]: 0.396 µM; IC50 [5, 14]: 0.018 µM
48 | RLNKRSYLI | – | – | – | – | – | IC50 [2, 10]: 18.5 µM; IC50 [7, 10]: 42.6 µM; IC50 [3, 10]: 0.023 µM; IC50 [4, 10]: 0.146 µM
49 | IVNNFITKEI | 13.7 µM | 14.2 µM | 1.47 µM | 0.192 µM | 1.32 µM | –
50 | YTKHSMLTNA | 38.3 µM | 7.34 µM | 3.9 µM | 0.141 µM | 1.42 µM | –
51 | AAKTPVIVV | 9.43 µM | 25.3 µM | 1.36 µM | 1.63 µM | 4.28 µM | –
52 | VISTIANSNI | 7.8 µM | 5.16 µM | 0.282 µM | 0.845 µM | 0.788 µM | –
53 | SLCPTKKLV | – | 11.9 µM | 3.16 µM | 2.66 µM | 1.04 µM | IC50 [6, 8]: 2.67 µM
54 | CLINDPWVL | – | – | – | – | – | IC50 [2, 10]: 6.16 µM; IC50 [6, 10]: 0.127 µM; IC50 [3, 10]: 0.31 µM; IC50 [4, 10]: 0.255 µM; IC50 [5, 10]: 4.55 µM
55 | KVYNGIFVDT | 11.8 µM | 16.4 µM | 0.111 µM | 1.44 µM | 1.38 µM | –
56 | MLHNPTSET | 13.7 µM | ≥ 70 µM | 4.21 µM | 0.184 µM | 1.57 µM | –
57 | ETLFGSYIT | 15.6 µM | 15.4 µM | 2.49 µM | 2.44 µM | 0.465 µM | –
58 | QLVWMACHSAA | – | – | – | – | – | IC50 [1, 10]: 11.4 µM; IC50 [2, 10]: ≥ 70 µM
59 | TLFIDRGSI | 17.7 µM | ≥ 70 µM | 2.1 µM | 0.802 µM | 0.181 µM | –
60 | ALANTIEV | – | – | – | – | – | IC50 [2, 10]: 9.13 µM; IC50 [7, 10]: 59.3 µM; IC50 [3, 10]: 0.162 µM; IC50 [4, 10]: 0.059 µM
61 | DLFMSHVKSV | – | 19.8 µM | 3.38 µM | 0.042 µM | 1.94 µM | IC50 [6, 8]: 2.49 µM
62 | DTLVKSGLT | ≥ 70 µM | 52.9 µM | 1.95 µM | 2.88 µM | 1.95 µM | –
63 | TMKAIEKDRL | 17.5 µM | ≥ 70 µM | 0.171 µM | 1.06 µM | 1.57 µM | –
64 | IADIRDKYM | 11.3 µM | 57.8 µM | 0.063 µM | 0.23 µM | 3.11 µM | –
65 | FTSYKRFVT | ≥ 70 µM | 12.4 µM | 2.33 µM | 3.38 µM | 0.452 µM | –
66 | IVSLCPTKKL | 9.97 µM | 28.5 µM | 0.0095 µM | 0.029 µM | 0.52 µM | –
67 | YCSNIKLQVV | – | – | – | – | – | IC50 [1, 11]: 8.6 µM; IC50 [2, 11]: 7.13 µM; IC50 [3, 11]: 1.24 µM; IC50 [4, 11]: 0.802 µM; IC50 [5, 11]: 1.17 µM
68 | IVSSYVCSGL | – | – | – | – | – | IC50 [1, 10]: 6.2 µM; IC50 [2, 10]: 12.7 µM; IC50 [3, 10]: 0.161 µM; IC50 [4, 10]: 0.795 µM; IC50 [5, 10]: 0.767 µM
69 | KTVAGSFAS | – | – | – | – | – | IC50 [1, 12]: 5.56 µM; IC50 [2, 12]: 9.14 µM; IC50 [3, 12]: 1.6 µM; IC50 [4, 12]: 3.82 µM; IC50 [5, 12]: 2.99 µM

Reference: the Immune Epitope Database (IEDB)
